Publication PMC11700839

Target: ETS1 transcription factor (endogenous, FP-RMS cells) (human (endogenous in Rh30 and Rh41)) (UniProt P14921)
Experiment: co-IP; endogenous proteins from Rh30 and Rh41 cells, IP with ETS1 antibody (rabbit IgG as negative control), immunoblot; also with Ethidium Bromide or Benzonase in the IP; also cells pre-treated 16 hours with 1 µM YK-4-279 or DMSO and the same included in the IP reaction, recovery by densitometry normalized to ETS1

Chain of UniProt P14921 (P14921 whole entry): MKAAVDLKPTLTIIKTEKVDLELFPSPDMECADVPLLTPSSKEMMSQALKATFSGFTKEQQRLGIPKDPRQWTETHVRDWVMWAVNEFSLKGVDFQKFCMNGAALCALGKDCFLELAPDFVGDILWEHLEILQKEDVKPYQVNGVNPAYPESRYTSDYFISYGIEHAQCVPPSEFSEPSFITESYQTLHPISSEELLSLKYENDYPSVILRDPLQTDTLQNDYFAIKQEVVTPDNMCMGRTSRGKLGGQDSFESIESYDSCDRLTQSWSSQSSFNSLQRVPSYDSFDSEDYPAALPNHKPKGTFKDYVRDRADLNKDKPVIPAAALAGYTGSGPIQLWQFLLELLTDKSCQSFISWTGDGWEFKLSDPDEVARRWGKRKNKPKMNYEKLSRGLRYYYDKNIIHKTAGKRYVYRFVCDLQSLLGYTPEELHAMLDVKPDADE

PAX3-FOXO1 oncofusion (endogenous, FP-RMS cells) (natural protein)
co-immunoprecipitated PAX3-FOXO1 with 1 µM YK-4-279, percent of DMSO control (Rh30 cells) (% of DMSO control): 50 | co-immunoprecipitated PAX3-FOXO1 with 1 µM YK-4-279, percent of DMSO control (Rh41 cells) (% of DMSO control): 65
